The values below come from paper PMC6657692 (Cellular microbiology, 2018).

Sequences and labels used below:
T1: Aggregatibacter actinomycetemcomitans leukotoxin (LtxA) (Aggregatibacter actinomycetemcomitans …, UniProt P16462 1-1055)
T1 sequence: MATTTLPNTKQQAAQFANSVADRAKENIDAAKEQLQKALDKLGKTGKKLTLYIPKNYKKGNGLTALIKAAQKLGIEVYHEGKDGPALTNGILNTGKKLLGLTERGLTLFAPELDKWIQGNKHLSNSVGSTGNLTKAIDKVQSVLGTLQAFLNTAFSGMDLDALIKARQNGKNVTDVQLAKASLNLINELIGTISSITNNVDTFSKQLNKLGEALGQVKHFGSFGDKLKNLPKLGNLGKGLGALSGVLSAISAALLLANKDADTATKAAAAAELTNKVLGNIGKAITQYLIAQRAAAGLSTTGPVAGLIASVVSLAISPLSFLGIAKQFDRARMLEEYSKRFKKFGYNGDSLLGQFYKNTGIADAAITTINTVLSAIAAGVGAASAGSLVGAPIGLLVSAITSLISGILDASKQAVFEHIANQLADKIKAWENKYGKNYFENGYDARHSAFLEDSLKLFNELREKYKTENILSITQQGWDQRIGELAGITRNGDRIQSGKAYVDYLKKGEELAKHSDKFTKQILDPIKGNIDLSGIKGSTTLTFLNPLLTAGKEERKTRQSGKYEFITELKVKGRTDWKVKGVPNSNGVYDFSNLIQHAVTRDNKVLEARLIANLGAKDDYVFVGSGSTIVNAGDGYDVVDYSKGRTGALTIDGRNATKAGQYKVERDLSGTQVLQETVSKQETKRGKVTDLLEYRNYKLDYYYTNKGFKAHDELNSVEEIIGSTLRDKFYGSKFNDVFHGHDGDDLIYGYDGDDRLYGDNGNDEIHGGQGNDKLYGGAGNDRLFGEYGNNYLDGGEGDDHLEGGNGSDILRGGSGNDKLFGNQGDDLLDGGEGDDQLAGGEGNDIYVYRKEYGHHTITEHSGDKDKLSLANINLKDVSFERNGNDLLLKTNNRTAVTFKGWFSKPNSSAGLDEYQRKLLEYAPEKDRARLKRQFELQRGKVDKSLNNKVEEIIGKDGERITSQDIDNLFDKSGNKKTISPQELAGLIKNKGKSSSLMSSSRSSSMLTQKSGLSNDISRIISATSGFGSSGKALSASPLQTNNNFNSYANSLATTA

B1: β2N2 peptide (longer N-terminal part of the β2 cytoplasmic tail, with WNN) (peptide)
peptide: CKALIHLSDLREYRRFEKEKLKSQWNN
B2: αX cytoplasmic tail peptide (integrin αX) (peptide)
peptide: CKVGFFKRQYKEMMEEANGQIAPENGTQTPSPPSEK
B3: αL cytoplasmic tail peptide (integrin αL, LFA-1 α subunit) (peptide)
peptide: CKVGFFKRNLKEKMEAGRGVPNGIPAEDSEQLASGQEAGDPGSLKPLHEKDSESGGGKD
B4: αLN peptide (N-terminal, membrane-proximal part of the αL cytoplasmic tail) (peptide)
peptide: CKVGFFKRNLKEKMEAGRGVPNGI
B5: αLC peptide (C-terminal, membrane-distal part of the αL cytoplasmic tail) (peptide)
peptide: CGQEAGDPGSLKPLHEKDSESGGGKD
B6: αM cytoplasmic tail peptide (integrin αM) (peptide)
peptide: CKLGFFKRQYKDMMSEGGSPGAEPQ
B7: β2C peptide (C-terminal part of the β2 cytoplasmic tail) (peptide)
peptide: CLKSQWNNDNPLFKSATTTVMNPKFAES
B8: β3 cytoplasmic tail peptide (integrin β3) (peptide)
peptide: CKLLITIHDRKEFAKFEEERARAKWDTANNPLYKEATSTFTNITYRGT
B9: β2 cytoplasmic tail peptide (integrin β2, LFA-1 β subunit) (peptide)
peptide: CKALIHLSDLREYRRFEKEKLKSQWNNDNPLFKSATTTVMNPKFAES
B10: β2N peptide (N-terminal part of the β2 cytoplasmic tail) (peptide)
peptide: CKALIHLSDLREYRRFEKEKLKSQ

This assay deals with T1, Aggregatibacter actinomycetemcomitans …. Kind of assay: SPR. (In general: SPR reads the build-up and loss of mass on a sensor chip optically.)
The term Kd denotes a measure of binding affinity in units of concentration. Low values mean tighter binding, high ones weaker binding. Broadly, the koff is the first-order rate constant of dissociation. One may read the kon as a measure of how fast the partners come together. Low values mean slower complex formation, high ones faster complex formation. The molecule B1 came in with a Ka of 1.1e+08 M⁻¹, a Kd of 9.4 nM, a koff of 0.00013 s⁻¹ and an association rate constant (kon) of 14000 M⁻¹ s⁻¹.

Turning to B2, the Ka came to 5.7e+06 M⁻¹, the Kd was 180 nM, the koff amounted to 0.022 s⁻¹ and the kon worked out at 130000 M⁻¹ s⁻¹.

As to B3, the Ka came to 6.9e+07 M⁻¹, the Kd was determined as 15 nM, the koff amounted to 0.00012 s⁻¹ and the association rate constant (kon) came out at 8500 M⁻¹ s⁻¹.

B4 displayed a Ka of 6.6e+07 M⁻¹, a Kd of 16 nM, a koff of 0.00013 s⁻¹ and a kon of 8400 M⁻¹ s⁻¹.

In turn, B5 displayed a Ka of 370000 M⁻¹.

The molecule B6 showed a Ka of 2.5e+06 M⁻¹, a dissociation constant (Kd) of 400 nM, a koff of 0.011 s⁻¹ and an on-rate (kon) of 28000 M⁻¹ s⁻¹.

Molecule B7 yielded a Ka of 2e+07 M⁻¹, a Kd of 51 nM, a koff of 0.00031 s⁻¹ and a kon of 6100 M⁻¹ s⁻¹.

For B8, the Ka is 4.4e+06 M⁻¹, binding was put at a Kd of 230 nM, the koff stood at 0.0059 s⁻¹ and the kon turned out to be 26000 M⁻¹ s⁻¹.

As for B9, the Ka was 2.4e+08 M⁻¹, the Kd worked out at 4.2 nM, the koff was found to be 0.0001 s⁻¹ and the kon was determined as 24000 M⁻¹ s⁻¹.

The molecule B10 had a Ka of 9.6e+06 M⁻¹, a Kd of 110 nM, a koff of 0.00063 s⁻¹ and a kon of 6100 M⁻¹ s⁻¹.
